The values that follow come from patent US20260000597A1 (priority 2018, published 2026).

For this assay, the target named is AchR (Homo sapiens, UniProt P02708). Briefly: ELISA of screened peptide phages on AchR versus streptavidin (OD450). In kind it is binding. As to conditions: absorbance at 450 nm. In outline: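 Phage supernatants from 4th–5th round plaques, in 2% BSA, applied 1 h at 30 °C to wells coated with 5 μg/ml AchR or streptavidin. Bound phage detected with HRP anti-M13 and TMB at OD450; value given as AchR/streptavidin signal ratio.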

[1] abbreviates: ELISA of selected 11-mer (L2) peptide phages on AchR, Spep-2 positive control.
The mark [2] stands for this setting: phage ELISA, 5 μg/ml AchR, 4th and 5th round biopanning phages.
[3] abbreviates: ELISA of selected 14-mer (L3) peptide phages on AchR, Spep-2 positive control.

Chain of AchR (P02708 21-457): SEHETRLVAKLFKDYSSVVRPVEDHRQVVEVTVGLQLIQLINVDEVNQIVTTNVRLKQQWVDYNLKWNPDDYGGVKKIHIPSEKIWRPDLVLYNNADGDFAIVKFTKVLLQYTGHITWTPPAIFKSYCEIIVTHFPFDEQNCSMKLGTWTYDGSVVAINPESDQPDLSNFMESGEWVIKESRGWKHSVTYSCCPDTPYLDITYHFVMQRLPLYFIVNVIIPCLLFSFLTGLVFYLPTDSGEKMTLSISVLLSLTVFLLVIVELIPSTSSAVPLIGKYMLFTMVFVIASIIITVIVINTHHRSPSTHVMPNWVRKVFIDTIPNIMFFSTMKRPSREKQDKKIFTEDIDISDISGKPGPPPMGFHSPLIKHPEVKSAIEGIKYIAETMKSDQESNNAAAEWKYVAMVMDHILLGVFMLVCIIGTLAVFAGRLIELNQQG

In turn, “L2-33 (INYRCRKWVDK; AchR binding peptide) [Peptide L2-33]” gave an OD under setting [1] of 0.619.

On to “L2-184 (MHQRERRNFVK; AchR binding peptide) [Peptide L2-184]”, for which the OD under setting [1] was found to be 0.736.

The substance KFKKHGVK [Peptide L1-21] gave an OD under setting [2] of 0.65.

Turning to RSKKINNK [Peptide L1-71], the OD under setting [2] was determined as 0.618.

As to “L2-2 (GIWKFRRNQCK; AchR binding peptide) [Peptide L2-2]”, the OD under setting [1] stood at 0.749.

As for KVKKIYYR [Peptide L1-144], the OD under setting [2] was determined as 0.503.

Consider RNRKIPLK [Peptide L1-44], for which the OD under setting [2] is listed as 0.59.

Substance “L2-95 (IMDKRRKPGCR; AchR binding peptide) [Peptide L2-95]” displayed an OD under setting [1] of 0.522.

Turning to “L3-145 (MHIKMKREQVKDEE; AchR binding peptide) [Peptide L3-145]”, the OD under setting [3] is on record as 0.495.

In the case of “L3-22 (HSLKTRKSAFKSNT; AchR binding peptide) [Peptide L3-22]”, under setting [3], the OD stood at 0.83.

In turn, “L3-15 (YEPRFKRPYGKWCH; AchR binding peptide) [Peptide L3-15]” returned an OD under setting [3] of 0.859.

Regarding KTKKIHSK [Peptide L1-22], the OD under setting [2] is recorded as 0.732.

Substance “L2-92 (FVGRWKREYAK; AchR binding peptide) [Peptide L2-92]” had an OD under setting [1] of 0.634.

In turn, “L2-21 (MVMKWKRWNQR; AchR binding peptide) [Peptide L2-21]” displayed an OD under setting [1] of 0.719.

Substance “L2-40 (PEVKVRRHSMR; AchR binding peptide) [Peptide L2-40]” gave an OD under setting [1] of 0.685.

Consider KYKKSFTK [Peptide L1-198], for which the OD under setting [2] was 0.63.

For “L2-103 (QYNKGRKIHVR; AchR binding peptide) [Peptide L2-103]”, the OD under setting [1] is 0.571.

RFKRLCMK [Peptide L1-15] registered an OD under setting [2] of 0.67.

The substance “L3-155 (AWTRFRRFQCKGMS; AchR binding peptide) [Peptide L3-155]” came in with an OD under setting [3] of 0.794.

Consider KMRRVAPR [Peptide L1-176], for which the OD under setting [2] is listed as 0.479.

In turn, “L3-64 (HEIKQKKYFHRGHD; AchR binding peptide) [Peptide L3-64]” came in with an OD under setting [3] of 0.799.

Regarding “L2-100 (MNYRCKRVQER; AchR binding peptide) [Peptide L2-100]”, the OD under setting [1] is listed as 0.551.

Consider KNKRWVFK [Peptide L1-141], for which the OD under setting [2] turned out to be 0.505.

Consider “L3-124 (GAQRARKPVLRAVG; AchR binding peptide) [Peptide L3-124]”, for which the OD under setting [3] is listed as 0.515.

On to “L3-106 (DLVRKRKTMLRQLV; AchR binding peptide) [Peptide L3-106]”, for which the OD under setting [3] came out at 0.642.

Take RQKKDNQK [Peptide L1-26]: under setting [2], the OD was found to be 0.647.

As to KLKRRSRR [Peptide L1-16], under setting [2], the OD worked out at 0.62.

Turning to RPRRGHQK [Peptide L1-24], the OD under setting [2] is listed as 0.742.

“L2-160 (ADIRMKKWYPK; AchR binding peptide) [Peptide L2-160]”: under setting [1], the OD came to 0.721.

“L2-113 (QNDKDRKLSHR; AchR binding peptide) [Peptide L2-113]” had an OD under setting [1] of 0.64.

Under setting [1], “L2-168 (GGAKNKKVVSR; AchR binding peptide) [Peptide L2-168]” showed an OD of 0.725.

Take “L3-1 (ALGRTKRLHMRVHV; AchR binding peptide) [Peptide L3-1]”: the OD under setting [3] is 0.853.

“L3-132 (TITRVKRASHKTPS; AchR binding peptide) [Peptide L3-132]”: under setting [3], the OD is reported as 0.619.

Under setting [1], “L2-141 (SSHKGKRAQSK; AchR binding peptide) [Peptide L2-141]” came in with an OD of 0.462.

Under setting [3], “L3-171 (LDTKNRRGASKWDY; AchR binding peptide) [Peptide L3-171]” showed an OD of 0.629.

As to RQKKPWVK [Peptide L1-31], the OD under setting [2] is listed as 0.604.

Under setting [1], “L2-102 (YTSRCKKQPRK; AchR binding peptide) [Peptide L2-102]” returned an OD of 0.608.

Turning to “L3-59 (HVYKNRRVWGKGWP; AchR binding peptide) [Peptide L3-59]”, the OD under setting [3] came out at 0.659.

In turn, “L3-141 (FFYRLRRCLTRWWV; AchR binding peptide) [Peptide L3-141]” returned an OD under setting [3] of 0.504.

As for KTRRSACR [Peptide L1-134], under setting [2], the OD is recorded as 0.365.

Turning to “L3-162 (ANWRTRRDLAKEHV; AchR binding peptide) [Peptide L3-162]”, under setting [3], the OD came to 0.781.

In turn, “L2-153 (GHQRGKREGSR; AchR binding peptide) [Peptide L2-153]” had an OD under setting [1] of 0.688.

Regarding “L3-121 (CDDKPKKTVVKLTW; AchR binding peptide) [Peptide L3-121]”, the OD under setting [3] came out at 0.655.

For the substance “L2-187 (TAAKWKKIIMK; AchR binding peptide) [Peptide L2-187]”, the OD under setting [1] came out at 0.731.

“L2-8 (FGHRGKKEWAR; AchR binding peptide) [Peptide L2-8]” gave an OD under setting [1] of 0.739.

In turn, “L3-164 (QINRVKKSDAKFCT; AchR binding peptide) [Peptide L3-164]” came in with an OD under setting [3] of 0.746.

“L2-99 (CSLRARKEEWR; AchR binding peptide) [Peptide L2-99]”: under setting [1], the OD amounted to 0.52.

“L2-66 (PNYKWRKSRRR; AchR binding peptide) [Peptide L2-66]” registered an OD under setting [1] of 0.798.

The substance KERKGAVR [Peptide L1-100] registered an OD under setting [2] of 0.737.

Turning to “L2-114 (QVTKSKRVAFK; AchR binding peptide) [Peptide L2-114]”, the OD under setting [1] is on record as 0.643.

As for “L3-60 (EDLRCKKLELRSVI; AchR binding peptide) [Peptide L3-60]”, under setting [3], the OD is given as 0.574.

As for “L2-121 (HETKPKKDGLR; AchR binding peptide) [Peptide L2-121]”, under setting [1], the OD was determined as 0.492.

On to KVKRVWGR [Peptide L1-163], for which, under setting [2], the OD is on record as 0.618.

“L3-153 (FHTKLRKPIPKIDM; AchR binding peptide) [Peptide L3-153]” yielded an OD under setting [3] of 0.768.

Under setting [1], “L2-182 (HEQRPKKGQQK; AchR binding peptide) [Peptide L2-182]” registered an OD of 0.681.

Under setting [1], “L2-23 (QTYRLKKPLQK; AchR binding peptide) [Peptide L2-23]” gave an OD of 0.832.

In the case of “L2-90 (TSVKKRKQRLR; AchR binding peptide) [Peptide L2-90]”, the OD under setting [1] is 0.765.

The substance “L2-107 (VKHKERKCQRR; AchR binding peptide) [Peptide L2-107]” gave an OD under setting [1] of 0.681.

The substance RSKKSLYR [Peptide L1-53] had an OD under setting [2] of 0.78.

Under setting [3], “L3-200 (HMCRWRRQINKGVS; AchR binding peptide) [Peptide L3-200]” came in with an OD of 0.733.

The substance “L3-34 (LGWKKRKSLLRRHV; AchR binding peptide) [Peptide L3-34]” came in with an OD under setting [3] of 0.74.

Under setting [3], “L3-49 (VAFKTRRRVQRQSG; AchR binding peptide) [Peptide L3-49]” came in with an OD of 0.629.

“L2-27 (QGEKYRRTESK; AchR binding peptide) [Peptide L2-27]” gave an OD under setting [1] of 0.747.

“L3-172 (VTGKGRRVTFRCMN; AchR binding peptide) [Peptide L3-172]” yielded an OD under setting [3] of 0.634.

In the case of “L3-44 (PPFRLRKPLWRPQR; AchR binding peptide) [Peptide L3-44]”, the OD under setting [3] was 0.719.

In turn, KNKRTPVK [Peptide L1-86] returned an OD under setting [2] of 0.551.

The substance “L2-18 (LQSRSKKYSVK; AchR binding peptide) [Peptide L2-18]” came in with an OD under setting [1] of 0.753.

For the substance “L2-136 (YTSKNKRGCPR; AchR binding peptide) [Peptide L2-136]”, the OD under setting [1] is recorded as 0.454.

Consider “L3-90 (LWNRYKKLLMRIFW; AchR binding peptide) [Peptide L3-90]”, for which the OD under setting [3] worked out at 0.818.

“L2-122 (MGDRPRKWDSR; AchR binding peptide) [Peptide L2-122]”: the OD under setting [1] is 0.558.

Under setting [2], KPKRSAPR [Peptide L1-125] yielded an OD of 0.345.

“L2-59 (FGVKYRRVICR; AchR binding peptide) [Peptide L2-59]” came in with an OD under setting [1] of 0.69.

Regarding “L2-38 (ESEKIKRLSTR; AchR binding peptide) [Peptide L2-38]”, the OD under setting [1] is given as 0.88.

As for “L3-186 (YEHRHKRFFHKDMP; AchR binding peptide) [Peptide L3-186]”, the OD under setting [3] is 0.799.

In turn, “L2-5 (TQQRLKRVMEK; AchR binding peptide) [Peptide L2-5]” gave an OD under setting [1] of 0.752.

KCRKTMGR [Peptide L1-123] showed an OD under setting [2] of 0.409.

“L3-79 (QQFKYRRECVKYGS; AchR binding peptide) [Peptide L3-79]” had an OD under setting [3] of 0.701.

For the substance “L2-78 (HHNRMKKQYHR; AchR binding peptide) [Peptide L2-78]”, the OD under setting [1] was found to be 0.718.

Under setting [3], “L3-185 (VLPKERRWLTRFLI; AchR binding peptide) [Peptide L3-185]” registered an OD of 0.794.

For KPKKGGWK [Peptide L1-148], under setting [2], the OD stood at 0.426.

On to “L2-137 (CACKQRRATSR; AchR binding peptide) [Peptide L2-137]”, for which the OD under setting [1] was 0.452.

As to RIRRHMYR [Peptide L1-83], the OD under setting [2] turned out to be 0.621.

With RLKRGQFK [Peptide L1-85], the OD under setting [2] amounted to 0.57.

The substance KSRRMWGR [Peptide L1-183] returned an OD under setting [2] of 0.605.

On to “L3-169 (FHMKSKKDGDKFVM; AchR binding peptide) [Peptide L3-169]”, for which the OD under setting [3] was 0.783.

KCKKMTER [Peptide L1-37]: the OD under setting [2] is recorded as 0.524.
